B1: TBC1 domain family member 22B (Homo sapiens), Q9NU19 (parent)
chain: MAAENSKQFWKRSAKLPGSIQPVYGAQHPPLDPRLTKNFIKERSKVNTVPLKNKKASSFHEFARNTSDAWDIGDDEEEDFSSPSFQTLNSKVALATAAQVLENHSKLRVKPERSQSTTSDVPANYKVIKSSSDAQLSRNSSDTCLRNPLHKQQSLPLRPIIPLVARISDQNASGAPPMTVREKTRLEKFRQLLSSQNTDLDELRKCSWPGVPREVRPITWRLLSGYLPANTERRKLTLQRKREEYFGFIEQYYDSRNEEHHQDTYRQIHIDIPRTNPLIPLFQQPLVQEIFERILFIWAIRHPASGYVQGINDLVTPFFVVFLSEYVEEDVENFDVTNLSQDMLRSIEADSFWCMSKLLDGIQDNYTFAQPGIQKKVKALEELVSRIDEQVHNHFRRYEVEYLQFAFRWMNNLLMRELPLRCTIRLWDTYQSEPEGFSHFHLYVCAAFLIKWRKEILDEEDFQGLLMLLQNLPTIHWGNEEIGLLLAEAYRLKYMFADAPNHYRR
partner: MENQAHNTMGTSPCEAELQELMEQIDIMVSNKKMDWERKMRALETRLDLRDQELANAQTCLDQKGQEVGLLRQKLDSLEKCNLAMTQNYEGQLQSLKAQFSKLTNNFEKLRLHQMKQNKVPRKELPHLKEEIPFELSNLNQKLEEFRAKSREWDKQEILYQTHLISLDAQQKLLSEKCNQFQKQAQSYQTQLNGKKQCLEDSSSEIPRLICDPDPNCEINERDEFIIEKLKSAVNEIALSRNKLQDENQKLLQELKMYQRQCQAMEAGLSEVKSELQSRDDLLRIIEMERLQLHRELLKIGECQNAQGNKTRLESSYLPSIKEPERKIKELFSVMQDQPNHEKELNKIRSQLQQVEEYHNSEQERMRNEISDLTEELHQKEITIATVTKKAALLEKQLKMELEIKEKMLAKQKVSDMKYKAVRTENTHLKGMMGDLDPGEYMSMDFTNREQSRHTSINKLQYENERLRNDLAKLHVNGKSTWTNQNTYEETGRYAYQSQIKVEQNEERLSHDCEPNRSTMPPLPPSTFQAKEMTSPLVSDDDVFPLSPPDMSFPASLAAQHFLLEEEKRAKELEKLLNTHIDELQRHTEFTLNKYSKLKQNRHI
B2: Synaptotagmin-16 (Homo sapiens), Q17RD7 (parent)
chain: MVLAMASQDVQNFFQPFSSWISRVYEALQQAGDMLSASLVNISKQDSKLSDKLDQDLDNIQIQETYFEDEEQDNDWSQEDANSLFLEVDHFSCCNSDLQDSAQNSSPSLSQHAKDSCSTMSQWPNWASDDRKLPHVLSSIAEEEHHLEKQRSGLQHGFDSQLPGTLETVNGKKQVNSFGDDEELSTSSDSDEEVIKQFEISVSRSQSFRSVTSEKGKQTGLEQKPKFSRSLLTHGEDGTEVSACEDLDGASQRRYSENLSYGEDDHIPAHSQSPCERGDAKHHGTSHQESSVVQSLRRQSTEGSLEMETAFNSRGFEDSYATDSSSMWSPEEQDRTNLQVPSGVSEPISKCGDLDVIFEYRAASQKLTVTIVRAQGLPDKDRSGVNSWQVHVVLLPGKKHRGRTNIQRGPNPVFREKVTFAKLEPRDVAACAVRFRLYAARKMTRERMMGEKLFYLSHLHPEGEMKVTLVLEPRSNISSGGSPLSPSAVSHSDSTSSTQSLSHGGAPELLVGLSYNATTGRLSVEMIKGSHFRNLAVNRAPDTYGKLFLLNSVGQEMSRCKTSIRRGQPNPVYKETFVFQVALFQLSDVTLMISVYNRRTMKRKEMIGWIALGQNSSGEEEQDHWEEMKETKGQQICRWHTLLES
partner: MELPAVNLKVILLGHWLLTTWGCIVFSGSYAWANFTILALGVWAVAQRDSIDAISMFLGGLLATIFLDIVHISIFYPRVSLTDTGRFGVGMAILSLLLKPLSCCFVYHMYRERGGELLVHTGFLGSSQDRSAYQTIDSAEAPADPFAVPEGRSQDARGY
B3: Myotubularin-related protein 9 (Homo sapiens), Q96QG7 (parent)
chain: MEFAELIKTPRVDNVVLHRPFYPAVEGTLCLTGHHLILSSRQDNTEELWLLHSNIDAIDKRFVGSLGTIIIKCKDFRIIQLDIPGMEECLNIASSIEALSTLDSITLMYPFFYRPMFEVIEDGWHSFLPEQEFELYSSATSEWRLSYVNKEFAVCPSYPPIVTVPKSIDDEALRKVATFRHGGRFPVLSYYHKKNGMVIMRSGQPLTGTNGRRCKEDEKLINATLRAGKRGYIIDTRSLNVAQQTRAKGGGFEQEAHYPQWRRIHKSIERYHILQESLIKLVEACNDQTHNMDRWLSKLEASNWLTHIKEILTTACLAAQCIDREGASILIHGTEGTDSTLQVTSLAQIILEPRSRTIRGFEALIEREWLQAGHPFQQRCAQSAYCNTKQKWEAPVFLLFLDCVWQILRQFPCSFEFNENFLIMLFEHAYASQFGTFLGNNESERCKLKLQQKTMSLWSWVNQPSELSKFTNPLFEANNLVIWPSVAPQSLPLWEGIFLRWNRSSKYLDEAYEEMVNIIEYNKELQAKVNILRRQLAELETEDGMQESP
partner: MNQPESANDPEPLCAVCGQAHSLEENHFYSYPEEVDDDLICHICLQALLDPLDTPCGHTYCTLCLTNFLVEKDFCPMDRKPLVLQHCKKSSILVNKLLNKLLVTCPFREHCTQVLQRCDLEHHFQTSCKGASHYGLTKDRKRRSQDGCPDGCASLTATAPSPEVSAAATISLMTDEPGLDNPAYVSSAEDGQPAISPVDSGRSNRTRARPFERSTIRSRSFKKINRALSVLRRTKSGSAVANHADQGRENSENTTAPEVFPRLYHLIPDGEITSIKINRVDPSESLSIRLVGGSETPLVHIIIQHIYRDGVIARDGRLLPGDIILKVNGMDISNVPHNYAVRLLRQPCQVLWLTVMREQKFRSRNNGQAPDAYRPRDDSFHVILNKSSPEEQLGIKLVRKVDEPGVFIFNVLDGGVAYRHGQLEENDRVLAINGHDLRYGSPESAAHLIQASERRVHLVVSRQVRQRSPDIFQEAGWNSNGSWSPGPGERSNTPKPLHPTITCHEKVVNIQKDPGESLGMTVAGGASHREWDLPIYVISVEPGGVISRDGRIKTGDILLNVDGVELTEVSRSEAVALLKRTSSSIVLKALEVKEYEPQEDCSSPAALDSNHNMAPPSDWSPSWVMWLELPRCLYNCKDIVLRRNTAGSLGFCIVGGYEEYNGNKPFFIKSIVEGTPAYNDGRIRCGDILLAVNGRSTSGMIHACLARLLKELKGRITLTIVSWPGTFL
B4: Ribosome assembly protein METTL17, mitochondrial (Homo sapiens), Q9H7H0 (parent)
chain: MAAALKCLLTLGRWCPGLGVAPQARALAALVPGVTQVDNKSGFLQKRPHRQHPGILKLPHVRLPQALANGAQLLLLGSAGPTMENQVQTLTSYLWSRHLPVEPEELQRRARHLEKKFLENPDLSQTEEKLRGAVLHALRKTTYHWQELSYTEGLSLVYMAARLDGGFAAVSRAFHEIRARNPAFQPQTLMDFGSGTGSVTWAAHSIWGQSLREYMCVDRSAAMLVLAEKLLKGGSESGEPYIPGVFFRQFLPVSPKVQFDVVVSAFSLSELPSKADRTEVVQTLWRKTGHFLVLVENGTKAGHSLLMDARDLVLKGKEKSPLDPRPGFVFAPCPHELPCPQLTNLACSFSQAYHPIPFSWNKKPKEEKFSMVILARGSPEEAHRWPRITQPVLKRPRHVHCHLCCPDGHMQHAVLTARRHGRDLYRCARVSSWGDLLPVLTPSAFPPSTAQDPSES
partner: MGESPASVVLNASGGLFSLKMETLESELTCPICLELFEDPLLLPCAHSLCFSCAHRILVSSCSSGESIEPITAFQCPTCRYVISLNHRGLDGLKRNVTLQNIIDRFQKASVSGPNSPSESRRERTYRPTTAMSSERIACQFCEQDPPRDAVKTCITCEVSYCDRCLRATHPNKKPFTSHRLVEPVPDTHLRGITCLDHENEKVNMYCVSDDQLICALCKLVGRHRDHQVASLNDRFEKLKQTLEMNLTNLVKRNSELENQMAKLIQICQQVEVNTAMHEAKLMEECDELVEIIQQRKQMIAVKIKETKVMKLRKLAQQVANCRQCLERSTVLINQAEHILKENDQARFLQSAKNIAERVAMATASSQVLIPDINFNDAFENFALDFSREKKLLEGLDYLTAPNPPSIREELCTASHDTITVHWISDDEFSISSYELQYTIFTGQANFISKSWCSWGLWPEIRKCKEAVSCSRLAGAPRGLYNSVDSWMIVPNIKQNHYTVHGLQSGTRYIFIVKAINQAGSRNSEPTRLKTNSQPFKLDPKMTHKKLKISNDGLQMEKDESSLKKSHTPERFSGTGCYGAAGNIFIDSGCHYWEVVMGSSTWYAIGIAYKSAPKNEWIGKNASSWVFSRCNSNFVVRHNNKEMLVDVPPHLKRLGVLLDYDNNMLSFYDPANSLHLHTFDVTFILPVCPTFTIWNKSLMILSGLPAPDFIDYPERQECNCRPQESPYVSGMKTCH

Variants of: B1
Details: with deup1_human DEUP1, Q05D60

effect of a mutation on the interaction	Variant
disrupting interaction strength	A349T

Variants of: B2
Details: with atrap_human AGTRAP

effect of a mutation on the interaction	Variant
with no effect	R441W

Variants of: B3
Details: with lnx1_human LNX1, Q8TBB1

effect of a mutation on the interaction	Variant
with no effect	R359S

Variants of: B4
Details: with trim1_human MID2, Q9UJV3

effect of a mutation on the interaction	Variant
disrupting interaction strength	R212H

— IntAct's records for PubMed 29892012
